B1: antibody 481 (antibody, V domains shown)
VH: EVQLVESGGGLIQPGGSLRLSCAASGFTVSSNYMSWVRQAPGKGLEWVSVIYSGGSTFYADSVKGRFTISRDNSKNTLYLQMNSLRAEDTAVYYCAREVAGTYDYWGQGTLVTVSS
VL: DIQMTQSPSSVSASVGDRVTITCRASQGISSWLAWYQQKPGKAPKLLIYAASSLQSGVPSRFSGSGSGTDFTLTISSLQPEDFATYYCQQANSFPGGTFGPGTKVDIKR
B2: antibody 453 (antibody, V domains shown)
VH: QVQLVESGGGVVQPGRSLRLSCAASGFTFSSYAMYWVRQAPGKGLEWVAVISYDGSNKYYADSVKGRFTISRDNSKNTLYLQMNSLRAEDTAVYYCARDRPHYYGSGRKILNLYGMDVWGQGTTVTVSS
VL: DIQLTQSPSFLSASVGDRVTITCRASQGISSYLAWYQQKPGKAPKLLIYAASTLQSGVPSSFSGSGSGTEFTLTISSLQPEDFATYYCQQLNSYPPFTFGPGTKVDIK
B3: antibody 462 (antibody, V domains shown)
VH: QVQLVESGGGVVQPGRSLRLSCAASGFTFSSYGMHWVRQAPGKGLEWVAVIWYDGNNKYYADSVKGRFTISRDNSKNTLYLQMNSLRAEDTAVYYCAKDPTWFGELPSYYYYGMDVWGQGTTVTVSS
VL: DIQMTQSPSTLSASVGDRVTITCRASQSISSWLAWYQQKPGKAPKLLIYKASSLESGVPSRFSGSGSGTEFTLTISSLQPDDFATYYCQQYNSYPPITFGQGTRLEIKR
B4: antibody 469 (antibody, V domains shown)
VH: QVQLVESGGGVVQPGRSLRLSCAASGFTFSSYGMHWVRQAPGKGLEWVAVIWYDGSNKYYADSVKGRFTISRDNSKNTLYLQMNSLRAEDTAVYYCARDLLSVGWSFDYWGQGTLVTVSS
VL: not shown
B5: antibody 468 (antibody, V domains shown)
VH: QVQLVESGGGVVQPGRSLRLSCAASGFTFSIYAMHWVRQAPGKGLEWVAVISYDGSNKYYADSVKGRFTISRDNSKNTLYLQMNSLRAEDTAVYYCAGSLPAGSYYYYYGMDVWGQGTTVTVSS
VL: SYELTQPPSVSVSPGQTARITCSGDALPKQYAYWYQQKPGQAPVLVIYKDSERPSGIPERFSGSSSGTTVTLTISGVQAEDEADYYCQSADNSGTYVLFGGGTKLTVL
B6: antibody 461 (antibody, V domains shown)
VH: EVQLVESGGGLVKPGGSLRLSCAASGFTFSSYSMNWVRQAPGKGLEWVSSISSSSSYIYYADSVKGRFTISRDNAKNSLYLQMNSLRAEDTAVYYCASNPAAGQEAYYYYGMDVWGQGTTVTVSS
VL: not shown
B7: antibody 458 (antibody, V domains shown)
VH: QVQLVESGGGVVQPGRSLRLSCAASEFTFATYAMHWVRQAPGKGLEWVALISQDGSNKHYADSVKGRFTISRDNSKNTLYLQMNSLRAEGTAIYYCARESLEAAGPPFDYWGQGTLVTVSS
VL: SYELTQPPSVSVSPGQTATIICSGDKLGEKYASWYQQKPGQSPALVIYQDRKRPSGIPERFSGSNSGNTATLTISGTQAMDEADYYCQAWDSSNSVVFGGGTKLTVP
B8: antibody 465 (antibody, V domains shown)
VH: QITLKESGPTLVKPTQTLTLTCTFSGFSLSTSGVGVGWIRQPPGKALEWLALIYWDDDKHYSPSLKSRLTITKDTSKNQVVLTMTNMDPVDTATYYCAHMYYDILSGYYYGMDVWGQGTTVTVSS
VL: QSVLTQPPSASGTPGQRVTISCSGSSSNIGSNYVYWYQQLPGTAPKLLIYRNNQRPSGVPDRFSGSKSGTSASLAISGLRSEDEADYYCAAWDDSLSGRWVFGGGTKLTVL
B9: antibody 451 (antibody, V domains shown)
VH: EVQLVESGGGLVQPGGSLRLSCAASGFTFSTYWMSWVRQAPGKGLEWVANIKQDGSEKYYVDSVKGRFTISRDNAKNSLYLQMNSLRAEDTAVYYCARLGGSSWYFDYWGQGTLVTVSS
VL: not shown
B10: antibody 489 (antibody, V domains shown)
VH: QVQLVESGGGVVQPGRSLRLSCAASGFTFSSYAMHWVRQAPGKGLEWVAVISYDGSNKYYADSVKGRFTISRDNSKNTLYLQMNSLRAEDTAVYYCARAGSGNYYNWFDPWGQGTLVTVSS
VL: not shown
B11: antibody 455 (antibody, V domains shown)
VH: QVQLVQSGAEVKKPGSSVKVSCKASGGTFSSYAISWVRQAPGQGLEWMGRIIPILGIANYAQKFQGRVTITADKSTSTAYMELSSLRSEDTAVYYCARDSIVVPAAIISGYYYYGMDVWGQGTTVTVSS
VL: QSVLTQPPSVSAAPGQKVTISCSGSSSNIGNNYVSWYQQLPGTAPKLLIYDNNKRPSGIPDRFSGSKSGTSATLGITGLQTGDEADYYCGTWDSSLSAGRVFGGGTKLTVL
B12: antibody 500 (antibody, V domains shown)
VH: QVQLVESGGGVVQPGRSLRLSCAASGFTFSSYAMHWVRQAPGKGLEWVAVISYDGSNKYYADSVKGRFTISRDNSKNTLYLQMNSLRAEDTAVYYCAKSRDGYKLFDIWGQGTMVTVSS
VL: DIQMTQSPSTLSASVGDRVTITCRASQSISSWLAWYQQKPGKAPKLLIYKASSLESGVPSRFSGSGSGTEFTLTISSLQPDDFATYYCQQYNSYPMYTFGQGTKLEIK
notes: also called mAb 500
B13: antibody 502 (antibody, V domains shown)
VH: QVQLVQSGAEVKKPGASVKVSCKASGYTFTSYYMHWVRQAPGQGLEWMGIINPSGGSTSYAQKFQGRVTMTRDTATSTVYMELSSLRSEDTAVYYCARGGGQISMIIVVMDDAFDIWGQGTMVTVSS
VL: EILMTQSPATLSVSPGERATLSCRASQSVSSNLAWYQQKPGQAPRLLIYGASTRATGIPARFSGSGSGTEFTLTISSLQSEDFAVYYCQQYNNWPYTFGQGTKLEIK
B14: antibody 528 (antibody, V domains shown)
VH: QVQLVQSGAEVKKPGSSVKVSCKASGGTFNSNSISWVRQAPGQGLEWMGRIIPILDITMYARKFQGRVTISADKSTGTAYMDLSSLRSEDTAVYYCATDRDDSSGDYYYGMDVWGQGTTVTVSS
VL: DIQMTQSPSSLSASVGDRVTITCRASLSISNYLNWYQQKPGKAPNLLIYAASTLQSGVPSRFSGSGSGTDFTLTISSLQPEDFATYYCQQTYITRWTFGQGTKVEIK
notes: also called mAb 528
B15: antibody 520 (antibody, V domains shown)
VH: QVQLVESGGGVVQPGRSLRLSCAASGFTFSSYAMHWGRQAPGKGLEWVAVISYDGSNKYYADSVKGRFTISRDNSKNTLYLQMNSLRAEDTAVYYCARDGGSGWLLVGNWFDPWGQGTLVTVSS
VL: QSALTQPASVSGSPGQSITISCTGTSSDVGGYNYVSWYQQHPGKAPKLMIYDVSNRPSGVSNRFSGSKSGNTASLTISGLQAEDEADYYCSSYTSSITLYVFGTGTKVTVL
notes: also called mAb 520
B16: antibody 513 (antibody, V domains shown)
VH: B10 VH with N103S
VL: B15 VL with D52E, I97S, L99P
B17: antibody 518 (antibody, V domains shown)
VH: B10 VH with R98K, A99P, G100Y, N103S, Y105W, N106D, W107A, P110I, L116M
VL: not shown
B18: antibody 525 (antibody, V domains shown)
VH: QVQLVESGGGVVQPGRSLRLSCAASGFTFSSYAMHWVRQAPGKGLEWVTVISYNGRNKYYADSVKGRFTISRDNSKNTLYLQMNSLRAEDTAVYWCAREGLGAIVVGLDYWGQGTLVIVSS
VL: not shown
B19: antibody 506 (antibody, V domains shown)
VH: QITLKESGPTLVKPTQTLTLTCTFSGFSLSTSGVGVGWIRQPPGKALEWLALIYWDDDKRYSPSLKSRLTITKDTSKNQVVLTMTNMDPVDTATYYCAHHSLSSIFDYWGQGTLVTVSS
VL: QSALTQPASVSGSPGQSITISCTGTSSDVGDYNYVSWYQQHPGKAPKLMIYEVSNRPSGVSNRFSGSKSGNTASLTISGLQAEDEADYYCSSYTSSSTVFGGGTKLTVLG
B20: antibody 515 (antibody, V domains shown)
VH: EVQLVESGGGLVKPGGSLRLSCAASGFTFSSYSMNWVRQAPGKGLEWVSSISSSSSYIYYADSVKGRFTISRDNAKNSLYLQMNSLRAEDTAVYYCASIAAAGTLYYYYGMDVWGQGTTVTVSS
VL: not shown
B21: antibody 501 (antibody, V domains shown)
VH: QVQLVQSGAEVKKPGASVKVSCKASGYTFTSYYVHWVRQAPGQSLEWMGVISPSTGSTTYAQNFQGRVTMTRDTSTTTVYMELSSLRSEDTAVYYCARDDYYDSTRYFDLWGRGTLVTVSS
VL: QSALTQPASVSGSPGQSISFSCTGTSSDIGAYNYVSWYQQHPGRAPKLMIYDVGNRPSGVSNRFSGSKSGNTASLTISGLQAEDEADYYCSSYTSSSTQVFGTGTKVTVL

Changes are numbered by the printed parent chain. Where only a bound is given, the exact number is not on record here.

The first test deals with SARS-CoV-2 spike protein (SARS-CoV-2, UniProt P0DTC2 14-1208).
Assay: not given
One may read the Kd as the constant that tells how readily two partners part at equilibrium. A lower Kd goes with higher affinity. By koff is commonly meant the rate constant with which the complex falls apart. Lower therefore signals slow dissociation. Broadly, the kon is the second-order rate constant of association. A higher kon goes with faster complex formation. Turning to B1, the Kd was 0.273 nM, the koff was 2.96e-05 s⁻¹ and the kon amounted to 109000 M⁻¹ s⁻¹.

The molecule B2 returned a Kd of 1.61 nM, a koff of 0.000154 s⁻¹ and a kon of 95600 M⁻¹ s⁻¹.

As to B3, binding was characterised by a dissociation constant (Kd) of 9.31 nM, the koff turned out to be 0.00117 s⁻¹ and the kon came to 125000 M⁻¹ s⁻¹.

As for B4, the affinity, expressed as Kd, was 0.133 nM; the koff stood at 8.39e-05 s⁻¹; the kon was determined as 630000 M⁻¹ s⁻¹.

B5: the equilibrium dissociation constant (Kd) was determined as 0.463 nM, the koff was 3.67e-05 s⁻¹ and the kon turned out to be 79200 M⁻¹ s⁻¹.

On to B6, for which the equilibrium dissociation constant (Kd) amounted to 3.92 nM, the koff turned out to be 0.000377 s⁻¹ and the kon turned out to be 96300 M⁻¹ s⁻¹.

Regarding B7, the Kd was 0.334 nM, the koff turned out to be 8.87e-05 s⁻¹ and the kon was found to be 266000 M⁻¹ s⁻¹.

In turn, B8 returned a Kd of 6.97 nM, a koff of 6.06e-05 s⁻¹ and a kon of 8700 M⁻¹ s⁻¹.

Consider B9, for which the affinity, expressed as Kd, was 0.429 nM; the off-rate (koff) stood at 6.02e-05 s⁻¹; the kon stood at 140000 M⁻¹ s⁻¹.

B10 yielded a Kd of 0.317 nM, a koff of 4.85e-05 s⁻¹ and a kon of 153000 M⁻¹ s⁻¹.

B11 yielded a Kd of 0.866 nM, a koff of 9.23e-05 s⁻¹ and a kon of 107000 M⁻¹ s⁻¹.

The target in another test is T1, SARS-CoV-2 spike protein (SARS-CoV-2, UniProt P0DTC2 14-1208).
T1 construct: also called SARS-CoV-2 S protein; antigen of interest
Nature of the test: HT-SPR, Carterra LSA; mAb coupled to chip, antigen injected; 1:1 fit.
B12 had a Kd of 0.43 nM, a koff of 0.000114 s⁻¹ and a kon of 266000 M⁻¹ s⁻¹.

For the molecule B13, the Kd came to 2.49 nM, the koff is 0.000269 s⁻¹ and the kon amounted to 108000 M⁻¹ s⁻¹.

Turning to B14, the Kd came to 0.509 nM, the koff came out at 0.000285 s⁻¹ and the kon was 560000 M⁻¹ s⁻¹.

For the molecule B15, the dissociation constant Kd is at most 0.229 nM, the koff is at most 1e-05 s⁻¹ and the kon worked out at 43600 M⁻¹ s⁻¹.

B16: the equilibrium dissociation constant (Kd) was 0.0996 nM, the koff is 2.62e-05 s⁻¹ and the kon came out at 263000 M⁻¹ s⁻¹.

For the molecule B17, the affinity, expressed as Kd, was 0.0685 nM; the koff came to 2.75e-05 s⁻¹; the kon is 401000 M⁻¹ s⁻¹.

With B18, the Kd is 0.107 nM, the koff amounted to 3.94e-05 s⁻¹ and the kon amounted to 367000 M⁻¹ s⁻¹.

Take B19: the Kd was found to be 0.523 nM, the koff turned out to be 0.00021 s⁻¹ and the kon amounted to 401000 M⁻¹ s⁻¹.

For B20, binding was characterised by a dissociation constant (Kd) of 44.2 nM, the koff is 0.00134 s⁻¹ and the kon is 30200 M⁻¹ s⁻¹.

B21 had an equilibrium dissociation constant (Kd) of 8.78 nM, a koff of 0.000261 s⁻¹ and an on-rate constant (kon) of 29800 M⁻¹ s⁻¹.

The record behind these values is patent US20210292393A1 (published 2021).
